Results taken from US20100145007A1 (Janssen / Centocor, published 2010).

T1: human LGR7 (human, UniProt Q9HBX9 1-757)
T1 construct: whole, on cells; also called relaxin receptor
T1 sequence (looked up): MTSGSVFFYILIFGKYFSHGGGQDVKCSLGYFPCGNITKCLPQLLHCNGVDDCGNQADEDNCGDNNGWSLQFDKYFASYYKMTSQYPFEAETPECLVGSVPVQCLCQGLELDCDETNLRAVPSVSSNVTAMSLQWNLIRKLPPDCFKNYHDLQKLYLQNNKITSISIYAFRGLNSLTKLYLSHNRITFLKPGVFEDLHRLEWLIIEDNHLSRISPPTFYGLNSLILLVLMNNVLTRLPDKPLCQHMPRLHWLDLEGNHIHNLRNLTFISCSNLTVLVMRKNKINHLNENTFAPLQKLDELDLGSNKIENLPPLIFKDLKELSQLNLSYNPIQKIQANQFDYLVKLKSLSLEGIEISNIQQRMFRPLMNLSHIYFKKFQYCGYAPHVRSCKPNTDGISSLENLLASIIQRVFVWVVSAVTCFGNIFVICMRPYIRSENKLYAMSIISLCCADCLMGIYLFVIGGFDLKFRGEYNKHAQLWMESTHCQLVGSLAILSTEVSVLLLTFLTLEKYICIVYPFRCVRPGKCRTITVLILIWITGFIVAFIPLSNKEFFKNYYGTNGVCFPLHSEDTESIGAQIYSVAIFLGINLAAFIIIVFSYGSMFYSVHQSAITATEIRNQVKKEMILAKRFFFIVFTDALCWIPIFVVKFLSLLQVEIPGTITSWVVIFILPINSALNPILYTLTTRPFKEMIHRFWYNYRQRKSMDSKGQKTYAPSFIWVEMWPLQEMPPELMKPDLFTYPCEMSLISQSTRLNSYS

T2: human GPCR135 (human, UniProt Q9NSD7 1-469)
T2 construct: whole, on cells; also called SALPR
T2 sequence (looked up): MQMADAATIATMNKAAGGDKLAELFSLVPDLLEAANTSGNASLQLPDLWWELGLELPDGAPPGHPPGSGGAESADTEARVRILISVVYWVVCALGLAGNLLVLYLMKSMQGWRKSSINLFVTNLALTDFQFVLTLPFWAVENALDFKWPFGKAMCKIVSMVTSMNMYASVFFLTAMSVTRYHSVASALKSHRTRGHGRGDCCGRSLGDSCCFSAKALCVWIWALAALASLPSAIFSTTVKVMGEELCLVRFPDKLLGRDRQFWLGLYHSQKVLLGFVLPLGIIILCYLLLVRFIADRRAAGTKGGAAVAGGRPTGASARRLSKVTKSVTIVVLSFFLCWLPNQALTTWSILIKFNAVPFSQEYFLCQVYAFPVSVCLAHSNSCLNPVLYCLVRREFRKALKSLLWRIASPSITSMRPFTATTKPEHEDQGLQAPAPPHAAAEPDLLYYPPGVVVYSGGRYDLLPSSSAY

T3: rat LGR7 (rat, UniProt Q6R6I6 1-758)
T3 construct: whole, on cells; also called recombinant rat LGR7
T3 sequence (looked up): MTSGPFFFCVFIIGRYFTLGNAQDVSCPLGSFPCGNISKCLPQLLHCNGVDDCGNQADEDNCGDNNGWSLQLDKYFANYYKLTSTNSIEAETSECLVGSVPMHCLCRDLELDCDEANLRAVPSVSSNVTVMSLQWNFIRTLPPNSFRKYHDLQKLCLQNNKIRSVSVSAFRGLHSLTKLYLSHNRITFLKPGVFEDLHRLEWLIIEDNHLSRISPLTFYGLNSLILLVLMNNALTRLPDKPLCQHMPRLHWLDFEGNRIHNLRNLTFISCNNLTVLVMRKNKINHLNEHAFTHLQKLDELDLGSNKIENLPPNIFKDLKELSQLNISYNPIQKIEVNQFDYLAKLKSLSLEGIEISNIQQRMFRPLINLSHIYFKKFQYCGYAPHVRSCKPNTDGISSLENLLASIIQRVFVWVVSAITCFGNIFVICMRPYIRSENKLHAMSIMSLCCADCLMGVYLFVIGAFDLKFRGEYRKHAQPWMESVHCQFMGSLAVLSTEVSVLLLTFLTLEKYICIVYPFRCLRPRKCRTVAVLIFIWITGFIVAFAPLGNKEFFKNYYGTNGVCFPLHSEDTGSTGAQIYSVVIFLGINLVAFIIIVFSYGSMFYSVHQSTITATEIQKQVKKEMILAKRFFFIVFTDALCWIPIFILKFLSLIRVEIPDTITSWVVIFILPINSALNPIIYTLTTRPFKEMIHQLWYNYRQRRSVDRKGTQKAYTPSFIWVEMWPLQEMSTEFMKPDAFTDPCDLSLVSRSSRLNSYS

B1: R3(BΔ23-27)R (peptide)
chain 1: RAAPYGVRLCGREFIRAVIFTCR
chain 2: DVLAGLSSSCCKWGCSKSEISSLC
notes: probably a misprint
B2: R3(BΔ24-27) (peptide)
chain 1: RAAPYGVRLCGREFIRAVIFTCG
chain 2: DVLAGLSSSCCKWGCSKSEISSLC
B3: R3(BΔ25-27) (peptide)
chain 1: RAAPYGVRLCGREFIRAVIFTCGG
chain 2: DVLAGLSSSCCKWGCSKSEISSLC
B4: R3(BΔ26-27) (peptide)
chain 1: RAAPYGVRLCGREFIRAVIFTCGGS
chain 2: DVLAGLSSSCCKWGCSKSEISSLC
B5: R3(BΔ23-27)R/I5 (peptide)
chain 1: RAAPYGVRLCGREFIRAVIFTCR
chain 2: EDLQTLCCTDGCSMTDLSALC
modifications: N-terminal pyro-Glu ("<E")
notes: Chimeric two-chain peptide; also called R3(Δ23-27)R/I5; R3(ΔB23-27)R/I5

How the values were obtained:
human LGR7 [1] = target: T1, human LGR7; assay: radioligand competition, 50 pM 125I-relaxin-2 tracer, COS-7 cells transiently expressing human LGR7
Text: (§1) COS-7 cells in 24-well tissue culture plates transiently expressing GPCR135, GPCR142 or LGR7 were used in radioligand binding assays as described by Liu et al., 2005a, J. Biol. Chem., 280:292-300. ¹²⁵I-Relaxin-3/INSL5 (¹²⁵I-R3/I5), a radiolabeled chimeric peptide with the human relaxin-3 B-chain and the human INSL5 A-chain (Liu et al., 2005b), was used at a final concentration of 50 pM as the tracer to characterize the binding properties of all truncated relaxin-3 peptides for GPCR135 and GPCR142. ¹²⁵I-relaxin-2 (PerkinElmer Biosciences, Boston) was used at a final concentration of 50 pM to characterize the binding properties of the truncated peptides for the relaxin receptor (LGR7). The results were analyzed by GraphPad Prism 4.0 software (Graphpad, San Diego). The IC₅₀ values, which are the ligand concentrations that inhibited 50% of the maximum specific binding, were then calculated.

human GPCR142 = target: T4, human GPCR142 (human, UniProt Q8TDU9 1-374); assay: radioligand competition, 50 pM 125I-R3/I5 tracer, COS-7 cells transiently expressing human GPCR142
T4 construct: whole, on cells
T4 sequence (Q8TDU9 whole entry): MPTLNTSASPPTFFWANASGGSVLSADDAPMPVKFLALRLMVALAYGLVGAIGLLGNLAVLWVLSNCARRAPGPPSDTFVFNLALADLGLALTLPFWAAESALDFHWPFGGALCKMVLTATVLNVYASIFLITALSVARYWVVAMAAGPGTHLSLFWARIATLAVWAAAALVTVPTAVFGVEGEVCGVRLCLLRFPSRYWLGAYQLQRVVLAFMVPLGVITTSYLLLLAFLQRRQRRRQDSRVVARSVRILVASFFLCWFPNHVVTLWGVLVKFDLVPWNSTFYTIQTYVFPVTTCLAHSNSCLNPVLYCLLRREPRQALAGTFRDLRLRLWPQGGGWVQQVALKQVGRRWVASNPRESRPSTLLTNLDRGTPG
Text: as §1

human GPCR135 = target: T2, human GPCR135; assay: radioligand competition, 50 pM 125I-R3/I5 tracer, COS-7 cells transiently expressing human GPCR135
Text: as §1

human LGR7 [2] = target: T1, human LGR7; assay: cell-based or functional assay
human LGR7 [3] = target: T1, human LGR7; assay: radioligand competition, 50 pM 125I-relaxin-2 tracer, COS-7 cells transiently expressing human LGR7; NA = no affinity was observed in radioligand binding assay
Text: as §1

rat LGR7 = target: T3, rat LGR7; assay: radioligand competition, 125I-relaxin-2 tracer, COS-7 cells transiently expressing rat LGR7
Text: FIG. 3 illustrates that R3(BΔ23-27)R/I5 is bound by recombinant rat GPCR135 with high affinity, but not by rat LGR7. COS-7 cells transiently expressing recombinant rat GPCR135 or LGR7 were used to characterize the binding affinity of rat GPCR135 (A) and LGR7 for (B) R3(BΔ23-27)R/I5. ¹²⁵I-R3/I5 was used as the tracer for GPCR135 and ¹²⁵I-relaxin-2 was used as the tracer for LGR7 binding. Various concentrations of R3(BΔ23-27)R/I5 were used as the competitor and unlabeled human relaxin-3 was used as the positive control in the binding assay.
as §1, with “The IC₅₀ values, which are the ligand concentrations that inhibited 50% of the maximum specific binding, were then calculated.” left out

rat GPCR135 [4] = target: T5, rat GPCR135 (rat, UniProt Q5Y987 29-469); assay: autoradiography, displacement of 125I-R3/I5 from endogenous GPCR135 in rat brain sections
T5 sequence (Q5Y987 entry or part of it): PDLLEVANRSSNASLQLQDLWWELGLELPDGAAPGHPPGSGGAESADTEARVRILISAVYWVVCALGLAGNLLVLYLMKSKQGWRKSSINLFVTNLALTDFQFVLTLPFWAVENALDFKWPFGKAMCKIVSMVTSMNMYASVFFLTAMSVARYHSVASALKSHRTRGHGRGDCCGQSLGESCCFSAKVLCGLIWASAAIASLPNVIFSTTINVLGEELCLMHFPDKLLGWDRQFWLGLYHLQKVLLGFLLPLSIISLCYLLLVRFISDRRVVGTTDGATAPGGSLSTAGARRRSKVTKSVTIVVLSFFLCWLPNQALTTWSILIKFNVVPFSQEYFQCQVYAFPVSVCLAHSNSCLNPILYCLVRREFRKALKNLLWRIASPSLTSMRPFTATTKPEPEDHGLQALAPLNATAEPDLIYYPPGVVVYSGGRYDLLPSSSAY

rat GPCR135 [5] = target: T5, rat GPCR135; assay: radioligand competition, 125I-R3/I5 tracer, COS-7 cells transiently expressing recombinant rat GPCR135

Row | Binder | IC50 (human LGR7 [1]) | IC50 (human GPCR142) | IC50 (human GPCR135) | EC50, stimulation of β-gal expression in SK-N-MC/CRE-β-gal cells expressing human LGR7 (human LGR7 [2]) | binding result (human LGR7 [3]) | binding result (rat LGR7) | IC50 (rat GPCR135 [4]) | IC50 (rat GPCR135 [5])
1 | B1 | ~200 nM | 3.91 nM | 0.95 nM | – | – | – | – | –
2 | B2 | 8.9 nM | 18.9 nM | 13.5 nM | 4.3 nM | – | – | – | –
3 | B3 | 7.9 nM | 11.9 nM | 9.5 nM | 4.1 nM | – | – | – | –
4 | B4 | 6.3 nM | 9.5 nM | 11.5 nM | 3.3 nM | – | – | – | –
5 | B5 | – | 2.29 nM | 0.67 nM | – | no binding | no binding | 0.4 nM | 0.25 nM
